Test results from patent US20210388097A1 (SORRENTO THERAPEUTICS, published 2021).

T1: his-tagged human BCMA protein (ACROBiosystems, catalog # BCA-H522y-100 ug) (human, UniProt Q02223 1-54)
T1 construct: limits of the bought construct are not otherwise stated; also called recombinant his-tagged human BCMA; not shown: his tag of the bought protein
T1 sequence: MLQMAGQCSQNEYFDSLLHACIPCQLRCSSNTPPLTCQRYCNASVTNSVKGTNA

T2: Wild type human BCMA protein-mouse Fc (human)
T2 construct: also called wild type human BCMA-mouse Fc; wild type BCMA protein
T2 chain: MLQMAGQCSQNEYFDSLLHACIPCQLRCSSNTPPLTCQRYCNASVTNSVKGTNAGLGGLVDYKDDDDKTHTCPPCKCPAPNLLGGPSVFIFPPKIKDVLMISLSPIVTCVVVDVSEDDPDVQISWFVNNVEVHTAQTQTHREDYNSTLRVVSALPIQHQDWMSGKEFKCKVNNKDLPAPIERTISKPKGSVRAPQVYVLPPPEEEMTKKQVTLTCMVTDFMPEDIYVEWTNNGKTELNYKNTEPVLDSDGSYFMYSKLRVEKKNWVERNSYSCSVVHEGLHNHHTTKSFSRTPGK

T3: Mutant-1 human BCMA protein-mouse Fc (human)
T3 construct: also called mutant-1 human BCMA-mouse Fc (17G-18G); mutant-1 BCMA protein
T3 chain: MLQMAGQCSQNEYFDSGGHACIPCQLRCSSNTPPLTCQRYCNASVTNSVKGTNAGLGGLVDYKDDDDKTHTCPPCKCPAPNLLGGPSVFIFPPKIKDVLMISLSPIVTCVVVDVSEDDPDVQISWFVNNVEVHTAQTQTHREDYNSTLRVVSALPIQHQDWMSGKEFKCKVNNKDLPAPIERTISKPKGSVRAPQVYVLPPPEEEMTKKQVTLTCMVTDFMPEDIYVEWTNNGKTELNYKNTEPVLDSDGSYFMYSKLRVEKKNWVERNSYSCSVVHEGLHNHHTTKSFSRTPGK

T4: his-tagged mouse BCMA protein (ACROBiosystems, catalog # BCA-M52H3) (mouse, UniProt O88472 1-49)
T4 construct: Bought protein; not shown: his tag
T4 chain (looked up): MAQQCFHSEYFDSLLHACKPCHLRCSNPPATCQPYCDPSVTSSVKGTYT

T5: human BAFFR/TNFRSF13C (CD268) Fc tag, from Sino Biological (human, UniProt Q96RJ3 1-71, limits assumed)
T5 construct: Bought protein; not shown: Fc tag
T5 sequence (looked up): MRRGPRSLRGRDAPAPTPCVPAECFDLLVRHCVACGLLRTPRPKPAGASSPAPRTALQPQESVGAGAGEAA

T6: BCMA on MM1R cells (human, UniProt Q02223)
T6 construct: full length, on the surface of MM1R multiple myeloma cells; also called MM1R multiple myeloma cell line
T6 sequence (receptor, looked up): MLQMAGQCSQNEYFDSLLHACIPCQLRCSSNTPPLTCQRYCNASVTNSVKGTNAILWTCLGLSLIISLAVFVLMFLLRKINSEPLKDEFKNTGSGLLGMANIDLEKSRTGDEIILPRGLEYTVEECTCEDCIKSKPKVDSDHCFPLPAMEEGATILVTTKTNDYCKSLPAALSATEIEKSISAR

T7: human TACI/TNFRSF13B (CD267) His-tag, from Sino Biological (human, UniProt O14836 1-166, limits assumed)
T7 construct: Bought protein; not shown: His-tag
T7 sequence (looked up): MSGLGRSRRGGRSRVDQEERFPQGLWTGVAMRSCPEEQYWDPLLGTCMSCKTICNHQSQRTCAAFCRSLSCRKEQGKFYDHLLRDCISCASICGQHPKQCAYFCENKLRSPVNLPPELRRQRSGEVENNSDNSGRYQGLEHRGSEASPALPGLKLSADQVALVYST

T8: human APRIL protein (R&D Systems, catalog #5860-AP-010/CF) (human, UniProt O75888 105-250, limits assumed)
T8 construct: Bought protein; also called human APRIL protein from R&D Systems; TNF13
T8 sequence (looked up): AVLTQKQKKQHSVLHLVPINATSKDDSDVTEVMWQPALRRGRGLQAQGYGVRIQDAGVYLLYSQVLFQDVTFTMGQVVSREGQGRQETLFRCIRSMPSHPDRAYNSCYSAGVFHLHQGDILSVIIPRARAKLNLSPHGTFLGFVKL

B1: GSK J6M0 antibody (GSK anti-BCMA Ab) (antibody, V domains shown)
VH: QVQLVQSGAEVKKPGSSVKVSCKASGGTFSNYWMHWVRQAPGQGLEWMGATYRGHSDTYYNQKFKGRVTITADKSTSTAYMELSSLRSEDTAVYYCARGAIYDGYDVLDNWGQGTLVTVSS
VL: DIQMTQSPSSLSASVGDRVTITCSASQDISNYLNWYQQKPGKAPKLLIYYTSNLHSGVPSRFSGSGSGTDFTLTISSLQPEDFATYYCQQYRKLPWTFGQGTKLEIK
notes: Comparator anti-BCMA antibody; captured by anti-human Fc in SPR, so it carries a human Fc; also called GSK antibody
B2: Bluebird C11D5 antibody (BB anti-BCMA Ab) (antibody, V domains shown)
VH: QIQLVQSGPELKKPGETVKISCKASGYTFTDYSINWVKRAPGKGLKWMGWINTETREPAYAYDFRGRFAFSLETSASTAYLQINNLKYEDTATYFCALDYSYAMDYWGQGTTLTVSS
VL: DIVLTQSPASLAMSLGKRATISCRASESVSVIGAHLIHWYQQKPGQPPKLLIYLASNLETGVPARFSGSGSGTDFTLTIDPVEEDDVAIYSCLQSRIFPRTFGGGTKLEIK
notes: Comparator anti-BCMA antibody; also called BB C11D5; Bluebird antibody
B3: Mutant-2 human BCMA protein-mouse Fc (Fc fusion)
chain: MLQMAGQCSQNEYFDSLLHACIPCQLRCSSNPPGTCQRYCNASVTNSVKGTNAGLGGLVDYKDDDDKTHTCPPCKCPAPNLLGGPSVFIFPPKIKDVLMISLSPIVTCVVVDVSEDDPDVQISWFVNNVEVHTAQTQTHREDYNSTLRVVSALPIQHQDWMSGKEFKCKVNNKDLPAPIERTISKPKGSVRAPQVYVLPPPEEEMTKKQVTLTCMVTDFMPEDIYVEWTNNGKTELNYKNTEPVLDSDGSYFMYSKLRVEKKNWVERNSYSCSVVHEGLHNHHTTKSFSRTPGK
notes: also called mutant-2 human BCMA-mouse Fc (del32-35G); mutant-2 BCMA protein

What was measured:
[1] = target: T1, his-tagged human BCMA protein …; experiment: SPR (Biacore T200, 25 C), antibody captured on anti-human Fc, his-tagged human BCMA as analyte, 1:1 binding model
Description: Binding kinetics of anti-BCMA antibodies with his-tagged human BCMA protein (ACROBiosystems, catalog # BCA-H522y-100 ug, UniProt Q02223-1, SEQ ID NO:92) was measured using surface plasmon resonance (SPR). Kinetic interactions between the antibodies and his-tagged BCMA proteins were measured at 25° C. using Biacore T200 surface plasmon resonance (GE Healthcare). Anti-human fragment crystallizable region (Fc region) antibody was immobilized on a CM5 sensor chip to approximately 8000 resonance units (RU) using standard N-hydroxysuccinimide/N-Ethyl-N′-(3-dimethylaminopropyl) carbodiimide hydrochloride (NHS/EDC) coupling methodology. The anti-BCMA antibody (2 μg/mL) was captured for 60 seconds at a flow rate of 10 μL/minute. The his-tagged BCMA protein was run at six different dilutions of 3.12, 6.25, 12.5, 25, 50, 100 and 200 nM, in a running buffer of 0.01 M HEPES pH 7.4, 0.15 M NaCl, 3 mM EDTA, 0.05% v/v Surfactant P20 (HBS-EP+). The 25 nM BCMA protein run was measured two times. All measurements were conducted in HBS-EP+ buffer with a flow rate of 30 μL/minute. A 1:1 (Langmuir) binding model was used to fit the data. The SPR sensorgrams of anti-BCMA antibodies BCA7, GSK J6M0, BC4C9 and BC5C4 are shown in FIGS. 1, 2, 3 and 4, respectively, and their corresponding binding kinetics are listed in Table 3.

[2] = target: T2, Wild type human BCMA protein-mouse Fc; experiment: bio-layer interferometry, antibody (100 nM) loaded on AR2G sensor, BCMA-mouse Fc in solution
Description: (§1) The results of the protein-protein binding assays described in Example 8 were used to design an epitope mapping assay using bio-layer interferometry. Various anti-BCMA antibodies (2C5, 2E1, 4C9, 6G8, Bluebird C11D5, GSK J6M0, or isotype control) (100 nM) were loaded onto AR2G sensors and reacted with buffer or one of three types of human BCMA proteins including: including: wild type human BCMA-mouse Fc (SEQ ID NO:5), mutant-1 human BCMA-mouse Fc (double mutation 17G-18G; SEQ ID NO:6), or mutant-2 human BCMA-mouse Fc (mutation del32-35G; SEQ ID NO:7).

[3] = target: T3, Mutant-1 human BCMA protein-mouse Fc; experiment: as above
Description: as §1

[4] = target: T4, his-tagged mouse BCMA protein …; experiment: ELISA, his-tagged BCMA on Ni-NTA plate at 2 µg/mL, anti-human Fc HRP
Description: Cross-reactivity of the anti-BCMA antibodies with his-tagged BCMA protein from human, cynomolgus or mouse, were analyzed by ELISA assay. The Ni-NTA plate was coated with his-tagged BCMA proteins (listed in Example 2 above) at 2 μg/mL, then reacted with an anti-BCMA antibody at 20 μg/mL, and reacted with anti-human Fc HRP (KPL Scientific, catalog #5220-0279) at 1:2500 dilution. […] Each set includes 5 test antigens or buffer, from left to right: negative control antigen, his-tagged mouse BCMA protein, his-tagged cynomolgus BCMA protein, his-tagged human BCMA protein, and Dulbecco's Phosphate-Buffered Saline.

[5] = target: T5, human BAFFR/TNFRSF13C (CD268) Fc tag, …; experiment: bio-layer interferometry, antibody coupled to AR2G sensor, BAFFR in solution
Description: (§2) Bio-layer interferometry was used to measure cross-binding between (1) two different anti-BCMA antibodies (BCA7-2C5 or BB C11D5) or a control isotype, and (2) various human antigens including TACI and BAFFR.
(§3) Immobilization of antibody was achieved through standard EDC-catalyzed amide bond formation to create a covalent bond between a reactive amine on the protein and the carboxy-terminated biosensor surface. Briefly, AR2G sensors (OctetRED96e from ForteBio) were activated by EDC-NHS for 6 minutes, then 5 ug/ml antibodies were loaded (BCA7-2C5 antibody, Bluebird C11D5 chimeric antibody, or a human IgG isotype antibody) in 10 mM acetate buffer pH 5.0 for 6 minutes, followed by quenching for 6 minutes with 1M ethanolamine pH 8.5. The 3 minutes baseline step removed any unbound antibody from the biosensor, followed by 1.5 minutes each for association of three analyte proteins TACI (human TACI/TNFRSF13B (CD267) His-tag, from Sino Biological, 1 ug/mL in PBS), BAFFR (human BAFFR/TNFRSF13C (CD268) Fc tag) from Sino Biological, 2 ug/mL in PBS), and human BCMA protein (in-house made with mouse Fc, 2 ug/mL in PBS).

[6] = target: B3; experiment: bio-layer interferometry, antibody (100 nM) loaded on AR2G sensor, BCMA-mouse Fc in solution
Description: as §1

BCMA on MM1R cells = target: T6, BCMA on MM1R cells; experiment: flow cytometry on MM1R cells, 5x serial dilution, FITC goat anti-human IgG F(ab')2, GeoMean BL1-H
Text: Flow cytometry was used to test antibody binding to multiple myeloma cell line MM1R, using various anti-BCMA antibodies (5× serial dilution) and 80,000 cells per well. The secondary antibody was FITC AffiniPure FAB2 fragment goat anti-human IgG (H+L) (from Jackson Immuno Research). […] A BL-1 detector (IntelliCyt iQue Screener Plus) which detects at 530 nm was used. The geometric mean is reported.

[7] = target: T7, human TACI/TNFRSF13B (CD267) His-tag, …; experiment: bio-layer interferometry, antibody coupled to AR2G sensor, TACI in solution
Description: as §2, §3

[8] = target: T1, his-tagged human BCMA protein …; experiment: ELISA, his-tagged BCMA on Ni-NTA plate at 2 µg/mL, antibody at 20 µg/mL
[9] = target: T8, human APRIL protein (R&D Systems, …); experiment: bio-layer interferometry, APRIL on AR2G sensor, BCMA-mouse Fc at 2.5 µg/mL
Description: Bio-layer interferometry was also used to measure binding between APRIL protein, and wild type or mutant BCMA proteins. Human APRIL protein (R&D Systems, catalog #5860-AP-010/CF) was loaded onto an Ar2G sensor (OctetRET96e) and reacted with 2.5 μg/mL of one of three types of human BCMA proteins including: wild type human BCMA-mouse Fc (SEQ ID NO:5), mutant-1 human BCMA-mouse Fc (17G-18G; SEQ ID NO:6), or mutant-2 human BCMA-mouse Fc (de132-35G; SEQ ID NO:7).

Binder	Kd [1] [nM]	koff [1] [s⁻¹]	kon [1] [M⁻¹ s⁻¹]	binding result [2]	binding result [3]	binding result [4]	binding result [5]	binding result [6]	binding result (BCMA on MM1R cells)	binding result [7]	binding result [8]	binding result [9]
B1	2.52	0.000496	197000	binds	binds	no binding (tested: 20 µg/mL)	–	–	–	–	–	–
B2	–	–	–	binds	binds	no binding (tested: 20 µg/mL)	no binding (tested: 2 ug/mL)	binds	binds	no binding (tested: 1 ug/mL)	binds	–
B3	–	–	–	–	–	–	–	–	–	–	–	binds
